# Results taken from paper PMC3585324, “InterAKTions with FKBPs - Mutational and Pharmacological Exploration” (PLoS ONE, 2013).
# B1: purified FKBP51 ΔFK1_FLAG (domain or fragment, UniProt Q13451 143-457, looked up)
# chain: FEDGGIIRRTKRKGEGYSNPNEGATVEIHLEGRCGGRMFDCRDVAFTVGEGEDHDIPIGIDKALEKMQREEQCILYLGPRYGFGEAGKPKFGIEPNAELIYEVTLKSFEKAKESWEMDTKEKLEQAAIVKEKGTVYFKGGKYMQAVIQYGKIVSWLEMEYGLSEKESKASESFLLAAFLNLAMCYLKLREYTKAVECCDKALGLDSANEKGLYRRGEAQLLMNEFESAKGDFEKVLEVNPQNKAARLQISMCQKKAKEHNERDRRIYANMFKKFAEQDAKEEANKAMGKKTSEGVTNEKGTDSQAMEEEKPEGHV
# notes: FKBP51 without the FK1 domain; It was the only construct not checked by active site titration; also called FKBP51 ΔFK1 construct; pProExHta_ΔFK1; source: purified
# B2: purified FKBP52 (natural protein, UniProt Q02790 1-459, looked up)
# chain: MTAEEMKATESGAQSAPLPMEGVDISPKQDEGVLKVIKREGTGTEMPMIGDRVFVHYTGWLLDGTKFDSSLDRKDKFSFDLGKGEVIKAWDIAIATMKVGEVCHITCKPEYAYGSAGSPPKIPPNATLVFEVELFEFKGEDLTEEEDGGIIRRIQTRGEGYAKPNEGAIVEVALEGYYKDKLFDQRELRFEIGEGENLDLPYGLERAIQRMEKGEHSIVYLKPSYAFGSVGKEKFQIPPNAELKYELHLKSFEKAKESWEMNSEEKLEQSTIVKERGTVYFKEGKYKQALLQYKKIVSWLEYESSFSNEEAQKAQALRLASHLNLAMCHLKLQAFSAAIESCNKALELDSNNEKGLFRRGEAHLAVNDFELARADFQKVLQLYPNNKAAKTQLAVCQQRIRRQLAREKKLYANMFERLAEEENKAKAEASSGDHPTDTEMKEEQKSNTAGSQSQVETEA
# notes: FKBP52, His-tagged full length
# B3: purified isolated FK506-binding domain of FKBP51 (FKBP51FK1) (domain or fragment, UniProt Q13451 1-140, looked up)
# chain: MTTDEGAKNNEESPTATVAEQGEDITSKKDRGVLKIVKRVGNGEETPMIGDKVYVHYKGKLSNGKKFDSSHDRNEPFVFSLGKGQVIKAWDIGVATMKKGEICHLLCKPEYAYGSAGSLPKIPSNATLFFEIELLDFKGE
# notes: detection was with an antibody against the FK1 domain; also called FLAG-tagged FKBP51FK1; source: purified
# B4: purified FLAG-tagged FKBP51 (natural protein, UniProt Q13451 1-457, looked up)
# chain: MTTDEGAKNNEESPTATVAEQGEDITSKKDRGVLKIVKRVGNGEETPMIGDKVYVHYKGKLSNGKKFDSSHDRNEPFVFSLGKGQVIKAWDIGVATMKKGEICHLLCKPEYAYGSAGSLPKIPSNATLFFEIELLDFKGEDLFEDGGIIRRTKRKGEGYSNPNEGATVEIHLEGRCGGRMFDCRDVAFTVGEGEDHDIPIGIDKALEKMQREEQCILYLGPRYGFGEAGKPKFGIEPNAELIYEVTLKSFEKAKESWEMDTKEKLEQAAIVKEKGTVYFKGGKYMQAVIQYGKIVSWLEMEYGLSEKESKASESFLLAAFLNLAMCYLKLREYTKAVECCDKALGLDSANEKGLYRRGEAQLLMNEFESAKGDFEKVLEVNPQNKAARLQISMCQKKAKEHNERDRRIYANMFKKFAEQDAKEEANKAMGKKTSEGVTNEKGTDSQAMEEEKPEGHV
# notes: FKBP51, His-tagged full length; also called FKBP51_FLAG; purified FKBP51
# How the values were obtained:
# [1] = target: T1, GST_Akt1^S473D (UniProt P31749 1-480, S473D); test: pull-down; GST pull-down: 15 µM FKBPs or Cyp40 with 22 µM GST_Akt1 S473D or GST_Akt1 S473D_ΔPH on glutathione resin, 3 h, 4 °C, NETN buffer (20 mM Tris-HCl pH 8.0, 100 mM NaCl, 1 mM EDTA, 0.5% igepal); AMP-PNP (5 mM), rapamycin (1 µM) or DMSO where indicated; Western blot; settings: both partners purified
# T1 construct: Akt1 with the phosphomimetic S473D, called constitutively active; also called purified GST-tagged Akt1S473D; GST-tagged active Akt
# T1 sequence (P31749 whole entry S473D): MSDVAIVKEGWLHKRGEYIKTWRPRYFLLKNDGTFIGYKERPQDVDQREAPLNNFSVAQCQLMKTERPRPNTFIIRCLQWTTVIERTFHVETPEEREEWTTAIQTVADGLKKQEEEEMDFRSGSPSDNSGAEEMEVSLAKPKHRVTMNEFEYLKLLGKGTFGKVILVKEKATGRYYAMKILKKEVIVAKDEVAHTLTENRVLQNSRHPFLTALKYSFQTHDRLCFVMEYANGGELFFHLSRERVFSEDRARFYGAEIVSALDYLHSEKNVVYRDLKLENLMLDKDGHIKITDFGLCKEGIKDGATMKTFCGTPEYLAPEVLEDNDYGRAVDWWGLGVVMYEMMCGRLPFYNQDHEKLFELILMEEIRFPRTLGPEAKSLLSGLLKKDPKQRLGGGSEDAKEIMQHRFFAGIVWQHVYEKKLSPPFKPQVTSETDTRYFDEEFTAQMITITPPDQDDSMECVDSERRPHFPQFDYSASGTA
# [2] = target: T2, purified inactive Akt1 (untagged) (UniProt P31749 1-480); test: pull-down; FLAG pull-down: FLAG column saturated with FKBP51_FLAG, 20 µM inactive Akt, NETN buffer, 4 °C overnight, eluted with FLAG peptide; Western blot; settings: both partners purified
# T2 construct: source: bought: Merck Millipore
# T2 sequence (P31749 whole entry): as the sequence (P31749 whole entry S473D) above, with D473S counted along it
Binder,binding result [1],binding result [2]
B1,binds,
B2,binds,
B3,binds,
B4,binds,binds
